We go through one molecule from patent publication US20190218308A1 (INNATE PHARMA, published 2019).

Positions count from the first letter of the chain named.

The target in test [1] is T1, human CD39 (NTPDase1, ENTPD1), membrane-bound, on cells (human, UniProt P49961 1-510).
T1 construct: Expressed on CHO cells, Hek-293T cells (wild type) or endogenous on Ramos cells; also called huCD39; CHO-huCD39
T1 sequence: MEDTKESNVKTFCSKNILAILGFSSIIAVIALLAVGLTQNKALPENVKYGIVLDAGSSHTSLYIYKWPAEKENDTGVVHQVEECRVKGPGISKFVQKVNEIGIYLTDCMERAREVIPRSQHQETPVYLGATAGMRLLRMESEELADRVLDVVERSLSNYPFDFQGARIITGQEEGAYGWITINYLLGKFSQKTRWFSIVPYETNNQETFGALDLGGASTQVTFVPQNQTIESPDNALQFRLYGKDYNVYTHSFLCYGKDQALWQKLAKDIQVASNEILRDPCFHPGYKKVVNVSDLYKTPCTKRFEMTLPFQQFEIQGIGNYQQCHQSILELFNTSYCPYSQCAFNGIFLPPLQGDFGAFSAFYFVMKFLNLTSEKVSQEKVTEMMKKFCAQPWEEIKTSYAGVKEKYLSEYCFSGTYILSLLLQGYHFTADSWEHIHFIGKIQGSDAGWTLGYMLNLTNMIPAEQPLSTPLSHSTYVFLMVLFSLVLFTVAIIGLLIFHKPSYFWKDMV
In words: flow cytometry titration on CHO cells expressing human CD39 (panel CHO-huCD39). How it is done: (§1) Cells were incubated with various concentration of unlabeled anti-CD39 antibody from 30 μg/ml to 5×10⁻⁴ μg/ml, for 30 minutes at 4° C. After washes, cells were incubated with Goat anti-mouse H+L labeled secondary antibody for 30 min at 4° C.
A general note: Flow cytometry measures light scatter and fluorescence of single cells or particles in a stream.

A further test deals with T2, murine CD39 on CHO cells (murine, UniProt P55772 1-510).
T2 construct: whole, on cells; also called CHO-moCD39; mouse CD39
T2 sequence (looked up): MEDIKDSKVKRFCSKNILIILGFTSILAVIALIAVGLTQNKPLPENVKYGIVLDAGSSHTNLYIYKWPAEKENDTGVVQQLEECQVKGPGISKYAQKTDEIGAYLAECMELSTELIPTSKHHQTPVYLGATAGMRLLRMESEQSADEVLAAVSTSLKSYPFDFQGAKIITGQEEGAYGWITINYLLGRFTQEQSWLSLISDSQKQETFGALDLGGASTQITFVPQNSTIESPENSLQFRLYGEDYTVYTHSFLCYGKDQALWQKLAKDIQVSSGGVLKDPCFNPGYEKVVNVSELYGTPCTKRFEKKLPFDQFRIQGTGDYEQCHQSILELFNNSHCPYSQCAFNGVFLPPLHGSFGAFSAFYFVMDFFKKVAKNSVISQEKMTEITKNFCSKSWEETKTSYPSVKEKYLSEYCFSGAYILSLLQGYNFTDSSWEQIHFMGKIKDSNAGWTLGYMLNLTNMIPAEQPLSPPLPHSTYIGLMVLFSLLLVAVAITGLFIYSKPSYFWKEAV
Kind of test: flow cytometry titration on CHO cells expressing murine CD39 (panel CHO-moCD39). The protocol:
as §1

Another test has as its target T3, CD39 mutant 5 (human, UniProt P49961 1-510).
T3 construct: Expressed on Hek-293T cells; also called M5
T3 chain: T1 sequence with Q96A, N99A, E143A, R147E
In words: flow cytometry, Hek-293T cells transfected with CD39 mutant 5 (panel M5), Comp-Alexa Fluor 647-A. The protocol:
(§2) Mutants were transfected in Hek-293T cells, as shown in the table 1, using numbering of SEQ ID NO: 2. […] Mutant 19 includes substitutions at residues R138, M139 and E142.
(§3) Mutants were transfected in Hek-293T cells, as shown in the table 1, using numbering of SEQ ID NO: 2. Dose-ranges of test antibodies (10-2.5-0.625-0.1563-0.0391-0.0098-0.0024-0.0006 μg/ml) are tested on the 20 generated mutants by flow cytometry.

For another test, the target named is T4, CD39 mutant 19 (human, UniProt P49961 1-510).
T4 construct: Expressed on Hek-293T cells; also called M19
T4 chain: T1 sequence with R138A, M139A, E142K
Kind of test: flow cytometry, Hek-293T cells transfected with CD39 mutant 19 (panel M19); antibody concentration not shown. The protocol: as §2, §3

B1: antibody I-394 (antibody, human IgG1, kappa, V domains shown)
VH: EVQLQQSGPELVKPGASVKMSCKASGYTFTDYNMHWVKQSHGRTLEWIGYIVPLNGGSTFNQKFKGRATLTVNTSSRTAYMELRSLTSEDSAAYYCARGGTRFAYWGQGTLVTVSA
VL: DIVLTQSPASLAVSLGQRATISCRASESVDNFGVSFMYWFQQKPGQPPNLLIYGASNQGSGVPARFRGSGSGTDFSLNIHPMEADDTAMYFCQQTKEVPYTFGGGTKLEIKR
By EC50 (read off the curve) is commonly meant the concentration needed to bring the measured effect to its halfway point. Lower therefore signals greater potency. As for B1, the “EC50 (read off the curve)” value in test [1] was around 0.2 µg/mL. For the same molecule, the binding result with murine CD39 on CHO cells is listed as “no binding (tested: about 30 µg/ml)”; in the test with CD39 mutant 5, “binds”; in the test with CD39 mutant 19, “no binding”.
